# Measurements from article PMC9482650, “Quantitative fragmentomics allow affinity mapping of interactomes” (Nature Communications, 2022).
# T1: MPP7, Q5T2T1
# T1 sequence (Q5T2T1 134-230, limits assumed, looked up): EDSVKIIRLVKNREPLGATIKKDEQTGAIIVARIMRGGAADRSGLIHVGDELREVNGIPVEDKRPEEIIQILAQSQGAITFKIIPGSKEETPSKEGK
# T2: NHERF3_1, Q5T2W1
# T2 sequence (Q5T2W1 4-100, limits assumed, looked up): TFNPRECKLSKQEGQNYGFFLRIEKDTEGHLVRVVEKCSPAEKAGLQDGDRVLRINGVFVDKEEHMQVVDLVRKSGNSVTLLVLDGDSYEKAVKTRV
# T3: TJP3_3, O95049
# T3 sequence (O95049 375-456, limits assumed, looked up): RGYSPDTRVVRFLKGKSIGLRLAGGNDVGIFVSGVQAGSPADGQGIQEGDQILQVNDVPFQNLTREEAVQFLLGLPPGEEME
# T4: LRRC7, Q96NW7
# T4 sequence (Q96NW7 1440-1537, limits assumed, looked up): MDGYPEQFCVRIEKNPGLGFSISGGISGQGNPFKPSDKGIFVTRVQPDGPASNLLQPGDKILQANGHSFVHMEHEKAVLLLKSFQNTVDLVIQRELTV
# T5: SYNJ2BP, P57105
# T5 sequence (P57105 8-110, limits assumed, looked up): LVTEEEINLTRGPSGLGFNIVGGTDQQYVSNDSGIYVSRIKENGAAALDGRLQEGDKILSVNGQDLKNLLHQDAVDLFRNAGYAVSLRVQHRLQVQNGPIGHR
# T6: PDZD7_3, Q9H5P4
# T6 sequence (Q9H5P4 857-944, limits assumed, looked up): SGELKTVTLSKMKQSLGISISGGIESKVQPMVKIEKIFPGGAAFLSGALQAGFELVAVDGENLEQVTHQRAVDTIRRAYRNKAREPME
# T7: MPP6, Q9NZW5
# T7 sequence (Q9NZW5 125-219, limits assumed, looked up): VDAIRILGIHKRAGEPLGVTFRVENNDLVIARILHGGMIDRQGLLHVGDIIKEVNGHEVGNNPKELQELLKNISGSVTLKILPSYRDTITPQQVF
# T8: PDZD2_2, O15018
# T8 sequence (O15018 329-429, limits assumed, looked up): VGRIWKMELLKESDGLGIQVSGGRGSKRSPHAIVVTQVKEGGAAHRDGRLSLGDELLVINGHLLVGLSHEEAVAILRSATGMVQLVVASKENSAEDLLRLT
# T9: MPP2, Q14168
# T9 sequence (Q14168 180-250, limits assumed, looked up): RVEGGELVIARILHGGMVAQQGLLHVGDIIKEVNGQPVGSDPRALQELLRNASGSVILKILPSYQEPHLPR
# T10: GRIP1_4, Q9Y3R0
# T10 sequence (Q9Y3R0 467-571, limits assumed, looked up): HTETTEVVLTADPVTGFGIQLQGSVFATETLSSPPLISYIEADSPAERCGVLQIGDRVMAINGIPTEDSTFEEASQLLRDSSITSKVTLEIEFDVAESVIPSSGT
# T11: APBA2_2, Q99767
# T11 sequence (Q99767 654-744, limits assumed, looked up): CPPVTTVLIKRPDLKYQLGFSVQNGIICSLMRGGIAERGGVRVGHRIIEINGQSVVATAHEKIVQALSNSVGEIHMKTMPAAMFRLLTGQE
# T12: RHPN1, Q8TCX5
# T12 sequence (Q8TCX5 508-602, limits assumed, looked up): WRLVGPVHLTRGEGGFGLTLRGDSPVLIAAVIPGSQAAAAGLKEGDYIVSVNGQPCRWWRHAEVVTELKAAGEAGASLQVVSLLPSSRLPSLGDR
# T13: MPDZ_5, O75970
# T13 sequence (O75970 695-796, limits assumed, looked up): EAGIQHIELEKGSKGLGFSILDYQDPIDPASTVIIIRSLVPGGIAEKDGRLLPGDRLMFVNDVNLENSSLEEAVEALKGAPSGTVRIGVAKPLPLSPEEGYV
# Tests used:
# Experiment in all cases: holdup assay
# Set-up in all cases: key: below the threshold = too weak to quantify, mostly under pKd 3.1 to 4
# MPP7, Q5T2T1 = biological target: T1, MPP7, Q5T2T1
# NHERF3_1, Q5T2W1 = biological target: T2, NHERF3_1, Q5T2W1
# SCRIB_2, Q14160 = biological target: SCRIB_2, Q14160
# GRIP2_6, Q9C0E4 = biological target: GRIP2_6, Q9C0E4
# LNX1_2, Q8TBB1 = biological target: LNX1_2, Q8TBB1
# TJP3_3, O95049 = biological target: T3, TJP3_3, O95049
# LNX1_1, Q8TBB1 = biological target: LNX1_1, Q8TBB1
# LRRC7, Q96NW7 = biological target: T4, LRRC7, Q96NW7
# MAGI1_2, Q96QZ7 = biological target: MAGI1_2, Q96QZ7
# SYNJ2BP, P57105 = biological target: T5, SYNJ2BP, P57105
# IL16_1, Q14005 = biological target: IL16_1, Q14005
# DLG1_1, Q12959 = biological target: DLG1_1, Q12959
# PDZD7_3, Q9H5P4 = biological target: T6, PDZD7_3, Q9H5P4
# MPP6, Q9NZW5 = biological target: T7, MPP6, Q9NZW5
# HTRA2, O43464 = biological target: HTRA2, O43464
# PDZD2_2, O15018 = biological target: T8, PDZD2_2, O15018
# MPP2, Q14168 = biological target: T9, MPP2, Q14168
# GRIP1_4, Q9Y3R0 = biological target: T10, GRIP1_4, Q9Y3R0
# DLG4_3, P78352 = biological target: DLG4_3, P78352
# GORASP1, Q9BQQ3 = biological target: GORASP1, Q9BQQ3
# APBA2_2, Q99767 = biological target: T11, APBA2_2, Q99767
# MAGI2_4, Q86UL8 = biological target: MAGI2_4, Q86UL8
# RHPN1, Q8TCX5 = biological target: T12, RHPN1, Q8TCX5
# MPDZ_5, O75970 = biological target: T13, MPDZ_5, O75970
# FRMPD2_3, Q68DX3 = biological target: FRMPD2_3, Q68DX3
# [1] = plain residues with an end cap or a label only (N-terminal biotin on a linker: ado-ado)
# [2] = plain residues with an end cap or a label only (N-terminal biotin on a linker: ahx)
# Chain of FRMPD2_3, Q68DX3 (Q68DX3 1073-1166): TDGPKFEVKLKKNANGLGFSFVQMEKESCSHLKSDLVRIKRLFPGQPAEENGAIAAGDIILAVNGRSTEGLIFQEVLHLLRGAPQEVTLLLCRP
# Chain of LNX1_1, Q8TBB1 (Q8TBB1 261-371): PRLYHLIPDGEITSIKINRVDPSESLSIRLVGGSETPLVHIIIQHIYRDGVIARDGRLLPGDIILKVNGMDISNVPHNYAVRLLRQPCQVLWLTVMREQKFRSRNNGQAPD
# Chain of DLG4_3, P78352 (P78352 306-403): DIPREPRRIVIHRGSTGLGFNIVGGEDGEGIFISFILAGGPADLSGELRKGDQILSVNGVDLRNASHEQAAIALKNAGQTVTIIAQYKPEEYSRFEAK
# Chain of LNX1_2, Q8TBB1 (Q8TBB1 371-470): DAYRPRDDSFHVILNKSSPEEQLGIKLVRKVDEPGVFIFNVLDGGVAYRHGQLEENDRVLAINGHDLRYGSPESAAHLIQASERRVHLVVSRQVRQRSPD
# Chain of GRIP2_6, Q9C0E4 (Q9C0E4 648-740): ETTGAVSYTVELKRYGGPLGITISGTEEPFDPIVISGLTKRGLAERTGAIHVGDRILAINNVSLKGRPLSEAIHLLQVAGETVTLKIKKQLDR
# Chain of SCRIB_2, Q14160 (Q14160 857-960): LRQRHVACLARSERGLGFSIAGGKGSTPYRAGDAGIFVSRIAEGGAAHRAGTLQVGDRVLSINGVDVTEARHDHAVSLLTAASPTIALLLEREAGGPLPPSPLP
# Chain of MAGI1_2, Q96QZ7 (Q96QZ7 456-580): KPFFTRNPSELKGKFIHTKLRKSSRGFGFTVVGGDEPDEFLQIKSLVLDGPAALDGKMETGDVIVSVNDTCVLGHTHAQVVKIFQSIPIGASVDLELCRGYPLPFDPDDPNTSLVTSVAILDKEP
# Chain of IL16_1, Q14005 (Q14005 210-306): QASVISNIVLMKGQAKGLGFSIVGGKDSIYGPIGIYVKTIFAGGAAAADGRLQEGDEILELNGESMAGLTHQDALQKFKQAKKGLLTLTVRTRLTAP
# Chain of HTRA2, O43464 (O43464 355-458): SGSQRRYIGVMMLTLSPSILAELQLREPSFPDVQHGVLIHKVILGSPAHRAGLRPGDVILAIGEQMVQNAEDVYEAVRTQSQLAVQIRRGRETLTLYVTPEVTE
# Chain of MAGI2_4, Q86UL8 (Q86UL8 772-865): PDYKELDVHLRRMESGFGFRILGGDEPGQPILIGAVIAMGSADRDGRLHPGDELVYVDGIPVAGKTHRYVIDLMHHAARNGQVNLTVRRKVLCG
# Chain of GORASP1, Q9BQQ3 (Q9BQQ3 1-208): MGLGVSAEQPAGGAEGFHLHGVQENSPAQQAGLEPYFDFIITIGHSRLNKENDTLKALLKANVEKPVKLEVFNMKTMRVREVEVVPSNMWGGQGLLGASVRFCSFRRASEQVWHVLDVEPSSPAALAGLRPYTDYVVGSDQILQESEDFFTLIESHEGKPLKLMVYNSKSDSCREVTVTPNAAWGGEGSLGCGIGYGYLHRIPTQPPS
binder,measurement,setting,value
"SLNANEVEWF [RNF130, Q86XS8]",pKd,"MPP7, Q5T2T1; [1]",3.53
same,pKd,"NHERF3_1, Q5T2W1; [1]",3.89
same,pKd,"SCRIB_2, Q14160; [1]",3.57
same,pKd,"GRIP2_6, Q9C0E4; [1]",below the threshold
same,pKd,"LNX1_2, Q8TBB1; [1]",below the threshold
same,pKd,"TJP3_3, O95049; [1]",3.6
same,pKd,"LNX1_1, Q8TBB1; [1]",3.75
same,pKd,"LRRC7, Q96NW7; [1]",below the threshold
same,pKd,"MAGI1_2, Q96QZ7; [1]",below the threshold
same,pKd,"SYNJ2BP, P57105; [1]",below the threshold
same,pKd,"IL16_1, Q14005; [1]",below the threshold
same,pKd,"DLG1_1, Q12959; [1]",below the threshold
same,pKd,"PDZD7_3, Q9H5P4; [1]",4.15
same,pKd,"MPP6, Q9NZW5; [1]",4.05
same,pKd,"HTRA2, O43464; [1]",3.51
same,pKd,"PDZD2_2, O15018; [1]",4.86
same,pKd,"MPP2, Q14168; [1]",below the threshold
same,pKd,"GRIP1_4, Q9Y3R0; [1]",below the threshold
same,pKd,"DLG4_3, P78352; [1]",below the threshold
same,pKd,"GORASP1, Q9BQQ3; [1]",4.08
same,pKd,"APBA2_2, Q99767; [1]",below the threshold
same,pKd,"MAGI2_4, Q86UL8; [1]",3.94
same,pKd,"RHPN1, Q8TCX5; [1]",3.5
same,pKd,"MPDZ_5, O75970; [1]",below the threshold
same,pKd,"FRMPD2_3, Q68DX3; [1]",3.49
"TRKRSGEAAV [PFKM, P08237]",pKd,"MPP7, Q5T2T1; [1]",below the threshold
same,pKd,"NHERF3_1, Q5T2W1; [1]",below the threshold
same,pKd,"SCRIB_2, Q14160; [1]",below the threshold
same,pKd,"GRIP2_6, Q9C0E4; [1]",below the threshold
same,pKd,"LNX1_2, Q8TBB1; [1]",below the threshold
same,pKd,"TJP3_3, O95049; [1]",below the threshold
same,pKd,"LNX1_1, Q8TBB1; [1]",below the threshold
same,pKd,"LRRC7, Q96NW7; [1]",below the threshold
same,pKd,"MAGI1_2, Q96QZ7; [1]",below the threshold
same,pKd,"SYNJ2BP, P57105; [1]",4.06
same,pKd,"IL16_1, Q14005; [1]",3.63
same,pKd,"DLG1_1, Q12959; [1]",below the threshold
same,pKd,"PDZD7_3, Q9H5P4; [1]",3.88
same,pKd,"MPP6, Q9NZW5; [1]",below the threshold
same,pKd,"HTRA2, O43464; [1]",below the threshold
same,pKd,"PDZD2_2, O15018; [1]",below the threshold
same,pKd,"MPP2, Q14168; [1]",below the threshold
same,pKd,"GRIP1_4, Q9Y3R0; [1]",below the threshold
same,pKd,"DLG4_3, P78352; [1]",below the threshold
same,pKd,"GORASP1, Q9BQQ3; [1]",below the threshold
same,pKd,"APBA2_2, Q99767; [1]",below the threshold
same,pKd,"MAGI2_4, Q86UL8; [1]",below the threshold
same,pKd,"RHPN1, Q8TCX5; [1]",below the threshold
same,pKd,"MPDZ_5, O75970; [1]",below the threshold
same,pKd,"FRMPD2_3, Q68DX3; [1]",3.97
"EKQAKGDTEF [CACYBP, Q9HB71]",pKd,"MPP7, Q5T2T1; [2]",below the threshold
same,pKd,"NHERF3_1, Q5T2W1; [2]",below the threshold
same,pKd,"SCRIB_2, Q14160; [2]",below the threshold
same,pKd,"GRIP2_6, Q9C0E4; [2]",below the threshold
same,pKd,"LNX1_2, Q8TBB1; [2]",below the threshold
same,pKd,"TJP3_3, O95049; [2]",below the threshold
same,pKd,"LNX1_1, Q8TBB1; [2]",below the threshold
same,pKd,"LRRC7, Q96NW7; [2]",below the threshold
same,pKd,"MAGI1_2, Q96QZ7; [2]",below the threshold
same,pKd,"SYNJ2BP, P57105; [2]",below the threshold
same,pKd,"IL16_1, Q14005; [2]",below the threshold
same,pKd,"DLG1_1, Q12959; [2]",below the threshold
same,pKd,"PDZD7_3, Q9H5P4; [2]",below the threshold
same,pKd,"MPP6, Q9NZW5; [2]",below the threshold
same,pKd,"HTRA2, O43464; [2]",below the threshold
same,pKd,"PDZD2_2, O15018; [2]",below the threshold
same,pKd,"MPP2, Q14168; [2]",below the threshold
same,pKd,"GRIP1_4, Q9Y3R0; [2]",below the threshold
same,pKd,"DLG4_3, P78352; [2]",below the threshold
same,pKd,"GORASP1, Q9BQQ3; [2]",below the threshold
same,pKd,"APBA2_2, Q99767; [2]",below the threshold
same,pKd,"MAGI2_4, Q86UL8; [2]",below the threshold
same,pKd,"RHPN1, Q8TCX5; [2]",below the threshold
same,pKd,"MPDZ_5, O75970; [2]",below the threshold
same,pKd,"FRMPD2_3, Q68DX3; [2]",below the threshold
